Measured values published in patent publication US20210269552A1 (GO THERAPEUTICS, published 2021).
Changes are numbered by the printed parent chain. Each block holds one molecule with its values, some of them ahead of it. No end group written: not given here.

Key:
[1] = target: T1, MUC1 alanine library glycopeptide 8 (human, GalNAc-Serine / GalNAc-Threonine at the bold underlined positions of Table 10A (marking not preserved); the Ser-GalNAc at position 20 is replaced by alanine); test: ELISA, peptide coated at 0.25 µg/ml, antibody supernatant; OD mutant peptide / OD wild type glycopeptide (SEQ ID NO:99)
T1 construct: Position 20 (Ser-GalNAc) replaced by alanine
T1 peptide: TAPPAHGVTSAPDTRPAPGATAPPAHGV
Experimental: (§1) Glycopeptides and relevant controls were diluted to 0.25 μg/ml in 0.2 M bicarbonate buffer pH 9.8 and 100 μl was plated onto each well of a high binding ELISA plate. Plates were then incubated overnight at 4° C. After discarding the coating buffer, the plate was blocked with 300 μl per well of blocking buffer (2.5% BSA in 1×PBS) for 1 hr at room temperature. Blocking buffer was then discarded, and 100 μl per well of antibody supernatant for each of 5E5, 1AG, and 4AG (diluted in blocking buffer) was added and incubated for 1 hr at room temperature. Antibody supernatant dilutions were previously optimized for each antibody (data not shown). Biotinylated Villa Villosa lectin (100 μl per well of 1 μg/ml in blocking buffer) was added to the plate as a control to detect the presence of GalNAc modified residues on the peptide. Plates were washed 3 times with 300 μl per well 1×TBS/0.05% Tween-20 (TBST). The secondary antibody Goat-anti mouse IgG (H+L)-HRP was diluted 1/5000 in blocking buffer and 100 μl of the diluted antibody was added per well and incubated on the plate for 1 hr at room temperature. Streptavidin-HRP was diluted 1/3000 in blocking buffer and 100 μl of the diluted streptavidin-HRP was added to wells containing the biotinylated lectin. Following secondary incubation, the plate was washed 4 times with 300 μl of TBST per well and then developed with 75 μl of room temperature 1-Step TMB substrate. After 1 minute, color development was stopped using 75 μl 2 N sulfuric acid. The plate was then read at 450 nm using a plate reader (Molecular Device SpectraMax i3).

[2] = target: T2, MUC1 alanine library glycopeptide 9 (human, GalNAc-Serine / GalNAc-Threonine at the bold underlined positions of Table 10A (marking not preserved); the Thr-GalNAc at position 21 is replaced by alanine); test: as above
T2 construct: Position 21 (Thr-GalNAc) replaced by alanine
T2 peptide: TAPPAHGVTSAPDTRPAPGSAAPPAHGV
Experimental: as §1

[3] = target: T3, Glycosylated peptide RPAPGSTAPPAHGVT (Table 5, SPR) (human, also: GalNAc at sites not preserved); test: SPR, Biacore T200, antibody on chip, peptide injected in single-cycle 6.25-100 nM, 25 C
T3 construct: Printed without biotin
T3 peptide: RPAPGSTAPPAHGVT
Experimental: Binding of the 1AG and 4AG antibodies to one glycysolated and one non-glycosylated peptide (Table 5) was assessed by surface plasmon resonance (SPR).
All SPR experiments were performed on a Biacore T200 with a CM5 sensor chip with 10,000 RU anti-mouse antibody on each channel (GE Healthcare) at 25° C. with HBS-P+ as running and sample buffer (10 mM HEPES pH 7.4, 150 mM NaCl, 0.05% Tween 20, and 1 mg/ml BSA) and 10 mM glycine, pH 1.7 as regeneration buffer.
The 1AG and 4AG antibodies were immobilized as a 30 μg/mL solution in 10 mM sodium acetate, pH 5.0 using standard amine coupling chemistry (EDC/NHS activation). Antibody capture was performed using a 10× dilution into reaction buffer for 7 to 10 minutes at 5 μL/min. Immobilization levels of 600 to 1000 RU were used. […] The dissociation was monitored for 5 minutes to 30 minutes.

BSA [4] = target: T4, BSA (bovine, UniProt P02769); test: indirect ELISA on BSA blocked control wells, hybridoma supernatant, anti-mouse IgG-HRP, OD 450 nm
T4 construct: commercial protein in control wells; also called bovine serum albumin
T4 sequence (P02769 25-607 limits assumed): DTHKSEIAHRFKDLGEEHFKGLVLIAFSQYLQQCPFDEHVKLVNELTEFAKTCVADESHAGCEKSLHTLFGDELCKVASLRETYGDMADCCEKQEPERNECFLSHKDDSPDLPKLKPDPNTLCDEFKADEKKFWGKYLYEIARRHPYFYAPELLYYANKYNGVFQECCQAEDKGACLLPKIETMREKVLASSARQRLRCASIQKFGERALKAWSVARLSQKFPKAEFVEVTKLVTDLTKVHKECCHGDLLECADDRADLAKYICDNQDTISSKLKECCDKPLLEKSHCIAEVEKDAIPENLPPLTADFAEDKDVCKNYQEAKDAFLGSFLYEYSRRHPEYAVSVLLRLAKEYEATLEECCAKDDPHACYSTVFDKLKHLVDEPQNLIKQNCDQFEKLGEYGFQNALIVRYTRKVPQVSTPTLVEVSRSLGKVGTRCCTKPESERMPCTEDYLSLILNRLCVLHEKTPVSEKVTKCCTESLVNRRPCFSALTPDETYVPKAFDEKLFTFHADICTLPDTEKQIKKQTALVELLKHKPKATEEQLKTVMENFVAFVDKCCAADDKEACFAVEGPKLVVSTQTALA
Experimental: (§2) ELISA plates were coated with MUC1 peptides titrated in 0.2 M bicarbonate buffer, pH 9.4 over night in concentrations ranging from 0.08 μg/ml to 10 μg/ml. BSA was used as a control/measure of background. The plates were then blocked with SuperBlock™ (Thermo Fisher) for 1 hr at room temperature. After plate washing, 1AG and 4AG hybridoma supernatants were incubated on the ELISA plate for 1 hour. The plates were then washed, and then incubated with secondary antibody (1/3000 Goat Anti-mouse IgG (H+L) HRP (abcam 62-6520)) for 1 hour. The plate was then washed and color was developed with 1-Step™ Ultra TMB (Thermo Fisher) for 2 minutes. Color development was then stopped with 2 N Sulfuric Acid. Absorbance at 450 nm was then measured.

1 = target: T5, 1 (GalNAc-Ser / GalNAc-Thr at the positions marked bold and underlined in Table 10A (the marking is lost in the text as given)); test: alanine-scan ELISA: peptides coated at 0.25 ug/ml, antibody supernatant, anti-mouse IgG-HRP; OD450 divided by OD450 on the wild-type peptide
T5 construct: also called MUC1 alanine library glycopeptide 1; peptide 1
T5 peptide: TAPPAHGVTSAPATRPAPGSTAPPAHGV
Experimental: as §1

2 = target: T6, 2 (GalNAc-Ser / GalNAc-Thr at the positions marked bold and underlined in Table 10A (the marking is lost in the text as given)); test: as above
T6 construct: also called MUC1 alanine library glycopeptide 2; peptide 2
T6 peptide: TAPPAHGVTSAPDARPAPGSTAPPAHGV
Experimental: as §1

Negative = target: T7, Negative (none (non-glycosylated)); test: as above
T7 construct: also called Negative Control
T7 peptide: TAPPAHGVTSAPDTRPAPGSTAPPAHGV
Experimental: as §1

Irrelevant Glycopeptide = target: T8, Irrelevant Glycopeptide (GalNAc-Ser / GalNAc-Thr at the positions marked bold and underlined in Table 10B (the marking is lost in the text as given)); test: as above
T8 peptide: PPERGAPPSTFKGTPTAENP
Experimental: as §1

[5] = target: T9, MUC1 alanine library glycopeptide 3 (human, GalNAc-Serine / GalNAc-Threonine at the bold underlined positions of Table 10A (marking not preserved)); test: as above
T9 construct: Position 15 (R) replaced by alanine
T9 peptide: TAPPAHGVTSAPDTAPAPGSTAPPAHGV
Experimental: as §1

[6] = target: T10, MUC1 alanine library glycopeptide 4 (human, GalNAc-Serine / GalNAc-Threonine at the bold underlined positions of Table 10A (marking not preserved)); test: as above
T10 construct: Position 16 (P) replaced by alanine
T10 peptide: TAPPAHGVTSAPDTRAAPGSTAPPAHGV
Experimental: as §1

[7] = target: T1, MUC1 alanine library glycopeptide 8; test: as above
Experimental: as §1

[8] = target: T11, MUC1 alanine library glycopeptide 12 (human, GalNAc-Serine / GalNAc-Threonine at the bold underlined positions of Table 10A (marking not preserved)); test: as above
T11 peptide: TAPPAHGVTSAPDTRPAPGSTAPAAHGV
Experimental: as §1

BSA [9] = target: T4, BSA; test: indirect ELISA, BSA control wells drawn on the peptide axis, hybridoma supernatant, anti-mouse IgG-HRP, OD 450 nm
Experimental: as §2

[10] = target: T12, MUC1 alanine library glycopeptide 6 (human, GalNAc-Serine / GalNAc-Threonine at the bold underlined positions of Table 10A (marking not preserved)); test: alanine-scan ELISA: peptides coated at 0.25 ug/ml, antibody supernatant, anti-mouse IgG-HRP; OD450 divided by OD450 on the wild-type peptide
T12 construct: Position 18 (P) replaced by alanine
T12 peptide: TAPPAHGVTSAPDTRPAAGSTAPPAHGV
Experimental: as §1

[11] = target: T13, MUC1 alanine library glycopeptide 10 (human, GalNAc-Serine / GalNAc-Threonine at the bold underlined positions of Table 10A (marking not preserved)); test: as above
T13 construct: Position 22 (A) replaced by glycine
T13 peptide: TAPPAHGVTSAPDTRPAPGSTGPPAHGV
Experimental: as §1

[12] = target: T14, MUC1 alanine library glycopeptide 11 (human, GalNAc-Serine / GalNAc-Threonine at the bold underlined positions of Table 10A (marking not preserved)); test: as above
T14 construct: Position 23 (P) replaced by alanine
T14 peptide: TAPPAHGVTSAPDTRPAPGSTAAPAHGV
Experimental: as §1

percent binding compared to the wild type peptide [1]: 18%
percent binding compared to the wild type peptide [2]: 2.93%
Molecule: 5E5 (antibody)

Kd [3]: 37.3 nM
koff [3]: 0.007 s⁻¹
kon [3]: 179000 M⁻¹ s⁻¹
binding result (BSA [4]): no binding
percent binding compared to the wild type peptide [1]: 2.23%
percent binding compared to the wild type peptide [2]: 6.07%
binding result 1: binds
binding result 2: binds
binding result [5]: binds
binding result [6]: binds
binding result [8]: binds
B1: 1AG (antibody, V domains shown)
VH: EVKLLESGGGLVQPGGSLKLSCAASGFDFSRDWMSWVRQAPGKGLEWIGEINPDSSTKNYTPSLKDKFIISRDNAKNTLFLQMSSVRSEDTALYYCATSHYYGLFGYWGQGTLVTVSA
VL: DIVLTQSPASLTVSLGQRATISCRASKSVSTSGYSYMHWYQQKPGQPPKLLIYLASYLESGVPARFSGSGSGTDFTLNIHPVEEEDAATYYCQHSRELPRTFGGGTKLEIK
notes: Mouse monoclonal antibody from Balb/c hybridoma; Used as hybridoma supernatant in the ELISAs; also called mAb 1AG; antibody 1AG
binding result (Negative): no binding (tested: 0.25 ug/ml coating peptide)
binding result (Irrelevant Glycopeptide): no binding (tested: 0.25 ug/ml coating peptide)
binding result [7]: no binding (tested: 0.25 ug/ml coating peptide)

Kd [3]: 3.4 nM
koff [3]: 0.00093 s⁻¹
kon [3]: 272000 M⁻¹ s⁻¹
percent binding compared to the wild type peptide [1]: 1.63%
percent binding compared to the wild type peptide [2]: 14.6%
binding result 1: binds
binding result 2: binds
binding result [5]: binds
binding result [6]: binds
binding result [10]: binds
binding result [11]: binds
binding result [12]: binds
binding result [8]: binds
B2: 4AG (antibody, V domains shown)
VH: EVKLLESGGGLVQPGGSLKLSCVASGFDFSRYWMSWVRQAPGKGPEWIGEINPESNTMNYSPSLKEKFIISRDTAKNMLYLQMSKVRSEDTALYYCATSHHYGLFDYWGQGTLVTVSA
VL: B1 VL with T12A, S35N, M37I, Y91F, I110F
notes: Mouse monoclonal antibody from Balb/c hybridoma; Used as hybridoma supernatant in the ELISAs; also called mAb 4AG; antibody 4AG
binding result (BSA [9]): no binding (tested: 10 ug/ml on the peptide axis)
binding result (Negative): no binding (tested: 0.25 ug/ml coating peptide)
binding result (Irrelevant Glycopeptide): no binding (tested: 0.25 ug/ml coating peptide)
binding result [7]: no binding (tested: 0.25 ug/ml coating peptide)
